Test [1] concerns the target K63-linked diubiquitin (Boston Biochem) (human) (UniProt P0CG48). Briefly: western blot, IgG 1 µg/mL, two-fold dilutions of K63-linked diubiquitin 1 µg to 16 ng. On the technique in general: A western blot detects proteins with antibodies after separation by electrophoresis.
The target of test [2] is K11 polyubiquitin linkages in 293T cell lysates (human) (UniProt P0CG48). The test is described as follows: IP from 293T lysate (empty vector), 7 M urea, mass spec AQUA; input 1085 pmol.
Test [3] has as its target K48 polyubiquitin linkages in 293T cell lysates (human) (UniProt P0CG48). Briefly: IP from lysate of 293T cells over-expressing LUBAC, 7 M urea, mass spec AQUA; input 12420 pmol.

In the case of Apu3.A8 anti-K63 IgG (antibody), in test [1], the limit of detection turned out to be 62 ng.

Turning to “isotype control IgG (unrelated human kappa IgG1 antibody)”, the pmol of ubiquitin linkage in the immunoprecipitate in test [2] was 0 pmol; in test [3], 1 pmol.

These data come from US20130058955A1.
